According to patent US20230048390A1 (Xencor, published 2023):

How the values were obtained:
mouse CD20 = biological target: T1, mouse CD20 (mouse, UniProt P19437 1-291, limits assumed); test: not described
T1 construct: Named only as mouse CD20
T1 sequence (looked up): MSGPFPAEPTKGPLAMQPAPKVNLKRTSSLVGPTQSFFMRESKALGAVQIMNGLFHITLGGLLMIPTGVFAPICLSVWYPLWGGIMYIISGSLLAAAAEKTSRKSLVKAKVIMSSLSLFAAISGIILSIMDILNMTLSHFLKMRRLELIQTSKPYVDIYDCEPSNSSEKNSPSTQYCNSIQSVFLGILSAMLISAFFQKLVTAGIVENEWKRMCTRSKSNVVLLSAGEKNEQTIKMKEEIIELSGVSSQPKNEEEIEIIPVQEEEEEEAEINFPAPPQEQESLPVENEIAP

human CD20 = biological target: T2, human CD20 (human, UniProt P11836 1-297); test: cell-based or functional assay
T2 sequence (looked up): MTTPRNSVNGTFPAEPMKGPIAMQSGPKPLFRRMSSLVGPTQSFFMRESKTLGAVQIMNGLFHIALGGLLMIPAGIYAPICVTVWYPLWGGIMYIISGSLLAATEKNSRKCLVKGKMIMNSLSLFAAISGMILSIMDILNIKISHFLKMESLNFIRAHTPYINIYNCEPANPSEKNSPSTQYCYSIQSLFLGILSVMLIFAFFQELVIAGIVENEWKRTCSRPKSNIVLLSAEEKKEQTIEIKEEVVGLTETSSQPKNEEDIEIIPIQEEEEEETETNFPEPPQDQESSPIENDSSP

binding result (mouse CD20): no binding | EC50 of RTCC against Ramos cells with purified T cells from six healthy donors (human CD20): 5.3 to 14.3 ng/mL
B1: XmAb®13676 (XENP13676 Anti-CD20 × Anti-CD3 Fab-scFv-Fc) (bispecific antibody)
heavy: QVQLVQSGAEVKKPGASVKVSCKASGYTFTSYNMHWVRQAPGQGLEWMGAIYPGNGDTSYNQKFQGRVTITADKSISTAYMELSSLRSEDTAVYYCARSTYYGGDWYFNVWGAGTLVTVSSASTKGPSVFPLAPSSKSTSGGTAALGCLVKDYFPEPVTVSWNSGALTSGVHTFPAVLQSSGLYSLSSVVTVPSSSLGTQTYICNVNHKPSDTKVDKKVEPKSCDKTHTCPPCPAPPVAGPSVFLFPPKPKDTLMISRTPEVTCVVVDVKHEDPEVKFNWYVDGVEVHNAKTKPREEEYNSTYRVVSVLTVLHQDWLNGKEYKCKVSNKALPAPIEKTISKAKGQPREPQVYTLPPSREEMTKNQVSLTCDVSGFYPSDIAVEWESDGQPENNYKTTPPVLDSDGSFFLYSKLTVDKSRWEQGDVFSCSVMHEALHNHYTQKSLSLSPGK
chain: not shown
light: QIVLTQSPSSLSASVGDRVTITCRASSSVSYIHWFQQKPGKSPKPLIYATSNLASGVPVRFSGSGSGTDYTLTISSLQPEDFATYYCQQWTSNPPTFGGGTKVEIKRTVAAPSVFIFPPSDEQLKSGTASVVCLLNNFYPREAKVQWKVDNALQSGNSQESVTEQDSKDSTYSLSSTLTLSKADYEKHKVYACEVTHQGLSSPVTKSFNRGEC
notes: The anti-CD20 Fv is derived from murine antibody C2B8; also called plamotamab
EC50 of Jeko-1 target cell killing (RTCC) in the presence of 3 µg/ml rituximab (human CD20): 51 ng/mL | EC50 of Jeko-1 target cell killing (RTCC) in the presence of 10 µg/ml rituximab (human CD20): 93 ng/mL | EC50 of Jeko-1 target cell killing (RTCC) in the presence of 30 µg/ml rituximab (human CD20): 162 ng/mL | EC50 of Jeko-1 target cell killing (RTCC) in the presence of 100 µg/ml rituximab (human CD20): 387 ng/mL | EC50 of Jeko-1 target cell killing (RTCC), no rituximab (human CD20): 24 ng/mL
